# Data published in article PMC1783847.
# Target: Bluetongue virus serotype 10 outer capsid protein VP2, unmodified full-length (Bluetongue virus serotype 10 (BTV-10))
# Test: SDS-PAGE of non-denatured samples with western blot
substance,measurement,value
"Bluetongue virus serotype 10 outer capsid protein VP2, unmodified full-length (natural protein)",stoichiometry N,3
